Measured values reported in US20250269047A1 (MABWELL SHANGHAI BIOSCIENCE, published 2025).
Positions count from the first letter of the chain named. Where two headings read alike, the source gives them in different places.

Tests used:
[1] = biological target: T1, recombinant human B7-H3-his extracellular domain protein (UniProtKB-Q5ZPR3, 1 aa-461 aa) (human, UniProt Q5ZPR3 29-461); experiment: BLI (Octet QKe), antibody on AHC biosensor, B7-H3-his 60 nM in solution
T1 construct: range 1-461; The printed range 1-461 starts at residue 1 and so includes the signal peptide; also called Human B7-H3 ECD; recombinant human B7-H3-his protein; not shown: C-terminal his tag
T1 sequence (looked up): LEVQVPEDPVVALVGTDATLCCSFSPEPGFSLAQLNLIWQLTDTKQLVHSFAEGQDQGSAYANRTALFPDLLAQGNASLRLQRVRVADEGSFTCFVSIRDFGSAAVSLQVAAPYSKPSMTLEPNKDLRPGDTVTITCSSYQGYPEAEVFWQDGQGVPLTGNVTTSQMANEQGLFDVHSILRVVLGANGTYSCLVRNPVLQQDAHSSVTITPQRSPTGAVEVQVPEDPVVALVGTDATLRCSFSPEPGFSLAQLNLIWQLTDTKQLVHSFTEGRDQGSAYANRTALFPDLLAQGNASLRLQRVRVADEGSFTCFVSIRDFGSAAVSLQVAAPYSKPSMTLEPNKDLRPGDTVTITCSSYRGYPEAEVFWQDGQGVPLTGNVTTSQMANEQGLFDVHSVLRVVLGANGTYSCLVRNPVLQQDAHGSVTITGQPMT
Experimental: According to the mutation designs, site-directed mutagenesis was performed in the plasmids expressing the humanized light chains and heavy chains respectively using StarMut gene Site-directed Mutagenesis Kit (Cat.: T111-01, GenStar). The mutated plasmids were transformed into E. coli cells for expansion, and plasmids expressing the humanized and mutated light and heavy chains based on the antibodies 9B11, 10B4, and 17A3 were obtained. […] 5-6 days after cell transfection, culture supernatants were purified through ProA affinity chromatography column to obtain different humanized antibodies. Affinities of the antibodies were determined by an assay including capturing Fc fragments of the antibodies with anti-human IgG Fc capture (AHC) biosensors using Octet QKe system instrument from Fortebio. For the assay, each of the humanized antibodies and the chimeric antibodies based on the antibodies 9B11, 10B4, and 17A3 was diluted to 4 μg/ml in PBS, and was allowed to flow through the surface of an AHC biosensor (Cat.: 18-0015, PALL) for 300 s. Recombinant human B7-H3-his protein (Accession No.: UniProtKB-Q5ZPR3, 1 aa-461 aa) was used as a mobile phase, and its concentration was 60 nM. The association time was 100 s and the dissociation time was 300 s. When the assay was finished, data from which the response values of blank control had been deducted were fitted to a 1:1 Langmuir binding model using software, and then kinetic constants for antigen-antibody binding were calculated. The light and heavy chain combinations and the affinity constant KD values of the humanized and the mutant antibodies based on the antibodies 9B11, 10B4, and 17A3 are shown in Tables 6-8 respectively.

[2] = biological target: T1, recombinant human B7-H3-his …; experiment: as above; remark: listed apart in the source
Experimental: Affinities of the antibodies were determined by an assay including capturing Fc fragments of the antibodies with anti-human IgG Fc capture (AHC) biosensors using Octet QKe system instrument from Fortebio. For the assay, each of the chimeric antibodies ch9B11, ch10B4, ch17A3 and the control antibody Enoblituzumab was diluted to 4 μg/ml in PBS, and was allowed to flow through the surface of an AHC biosensor (Cat.: 18-0015, PALL) for 120 s. Recombinant human B7-H3 extracellular domain protein (Accession No.: UniProtKB-Q5ZPR3, 1 aa-461 aa, C-his tag) (60 nM) was used as a mobile phase. The association time was 300 s and the dissociation time was 300 s. When the assay was finished, data from which the response values of blank control had been deducted were fitted to a 1:1 Langmuir binding model using software, and then kinetic constants for antigen-antibody binding were calculated.

B1: hz9B11-1 (antibody, human IgG1, kappa)
heavy: not shown
light: EIVLTQSPGTLSLSPGERATLSCRASQSINNNLHWYQQKPGQAPRLLIYYASQSISGIPDRFSGSGSGTDFTLTISRLEPEDFAVYYCQQSHSWPYTFGQGTKLEIKRTVAAPSVFIFPPSDEQLKSGTASVVCLLNNFYPREAKVQWKVDNALQSGNSQESVTEQDSKDSTYSLSSTLTLSKADYEKHKVYACEVTHQGLSSPVTKSFNRGEC
notes: hz9B11_VH1 + hz9B11_VL1; human IgG1, kappa
Kd [1]: 4.52 nM

B2: hz9B11-5 (antibody, human IgG1, kappa)
heavy: not shown
light: B1 light with Y49K
notes: hz9B11_VH1 + hz9B11_VL3; human IgG1, kappa
Kd [1]: 0.121 nM

B3: hz9B11-9 (antibody, human IgG1, kappa)
heavy: not shown
light: B1 light with Y49K, Y87F
notes: hz9B11_VH1 + hz9B11_VL5; human IgG1, kappa
Kd [1]: 0.107 nM

B4: hz9B11-10 (antibody, human IgG1, kappa)
heavy: not shown
light: B1 light with Y49K, Y87F
notes: hz9B11_VH2 + hz9B11_VL5; human IgG1, kappa
Kd [1]: 0.139 nM

B5: hz9B11-2 (antibody, human IgG1, kappa)
heavy: not shown
light: B1 light
notes: hz9B11_VH2 + hz9B11_VL1; human IgG1, kappa
Kd [1]: 6.28 nM

B6: hz9B11-7 (antibody, human IgG1, kappa)
heavy: not shown
light: B1 light with Y87F
notes: hz9B11_VH1 + hz9B11_VL4; human IgG1, kappa
Kd [1]: 3.07 nM

B7: hz9B11-8 (antibody, human IgG1, kappa)
heavy: not shown
light: B1 light with Y87F
notes: hz9B11_VH2 + hz9B11_VL4; human IgG1, kappa
Kd [1]: 4.51 nM

B8: ch9B11 (antibody, human IgG1, V domains shown)
VH: EVQLQQSGPELVRPGVSVKISCKGSGYSFTDYAIHWVKQSHAMSLEWIGIINTYYGNTNYNQKFKGKATMTVDKSSSTAYMELARLTSADSAIYYCARSTTTATFYWYFDVWGAGTTVSVSS
VL: DIVLTQSPVTLSVTPGDSVSLSCRASQSINNNLHWYQQKPHESPRLLIKYASQSISGIPSRFSGSGSGTDFTLSFNSVETEDFGMYFCQQSHSWPYTFGGGTKLEIK
notes: also called chimeric antibody 9B11
Kd [1]: 0.0998 nM | Kd [2]: 0.12 nM | koff [2]: 0.000141 s⁻¹ | kon [2]: 1.17e+06 M⁻¹ s⁻¹

B9: hz9B11-3 (antibody, human IgG1, kappa)
heavy: not shown
light: EIVLTQSPDFQSVTPKEKVTITCRASQSINNNLHWYQQKPDQSPKLLIKYASQSISGVPSRFSGSGSGTDFTLTINSLEAEDAATYYCQQSHSWPYTFGQGTKLEIKRTVAAPSVFIFPPSDEQLKSGTASVVCLLNNFYPREAKVQWKVDNALQSGNSQESVTEQDSKDSTYSLSSTLTLSKADYEKHKVYACEVTHQGLSSPVTKSFNRGEC
notes: hz9B11_VH1 + hz9B11_VL2; human IgG1, kappa
Kd [1]: 0.118 nM

B10: hz9B11-4 (antibody, human IgG1, kappa)
heavy: not shown
light: B9 light
notes: hz9B11_VH2 + hz9B11_VL2; human IgG1, kappa
Kd [1]: 0.141 nM

B11: hz17A3-8 (antibody, human IgG1, kappa, V domains shown)
VH: EVQLVQSGAEVKKPGASVKVSCKASGYTFTDYALHWVRQAPGQGLEWMGLINTYSSNTNYNQKFKDRVTMTRDTSISTAYMELSRLRSEDTAVYYCARGITAVVGTRYYAMDYWGQGTLVTVSS
VL: EIVLTQSPGTLSLSPGERATLSCRASQSISNNLHWYQQKPGQAPRLLIYYTSQNISGIPDRFSGSGSGTDFTLTISRLEPEDFAVYFCQQSYSWPLTFGGGTKVEIKR
notes: hz17A3_VH3 + hz17A3_VL4; human IgG1, kappa
Kd [1]: 0.462 nM

B12: hz17A3-20 (antibody, human IgG1, kappa, V domains shown)
VH: B11 VH
VL: EIVLTQSPDFQSVTPKEKVTITCRASQSISNNLHWYQQKPDQSPKLLIKYTSQNISGVPSRFSGSGSGTDFTLTINSLEAEDAATYYCQQSYSWPLTFGGGTKVEIKR
notes: hz17A3_VH3 + hz17A3_VL8; human IgG1, kappa
Kd [1]: 0.289 nM

B13: hz17A3-24 (antibody, human IgG1, kappa, V domains shown)
VH: B11 VH with N52S
VL: B12 VL with K49Y, Y87F
notes: hz17A3_VH4 + hz17A3_VL9; human IgG1, kappa
Kd [1]: 1.91 nM

B14: hz17A3-4 (antibody, human IgG1, kappa, V domains shown)
VH: B11 VH with E1Q, M48I, E89D
VL: B12 VL with K49Y
notes: hz17A3_VH2 + hz17A3_VL2; human IgG1, kappa
Kd [1]: 0.899 nM

B15: hz17A3-13 (antibody, human IgG1, kappa, V domains shown)
VH: B11 VH with N57S
VL: B11 VL with N31S, Y49K, F87Y
notes: hz17A3_VH5 + hz17A3_VL5; human IgG1, kappa
Kd [1]: 0.699 nM

B16: hz17A3-21 (antibody, human IgG1, kappa, V domains shown)
VH: B11 VH with N52S
VL: B12 VL
notes: hz17A3_VH4 + hz17A3_VL8; human IgG1, kappa
Kd [1]: 0.433 nM

B17: hz17A3-18 (antibody, human IgG1, kappa, V domains shown)
VH: B11 VH with N52S
VL: B11 VL with N31S, Y49K, N54S, F87Y
notes: hz17A3_VH4 + hz17A3_VL7; human IgG1, kappa
Kd [1]: 0.172 nM

B18: hz17A3-25 (antibody, human IgG1, kappa, V domains shown)
VH: B11 VH with N57S
VL: B12 VL with K49Y, Y87F
notes: hz17A3_VH5 + hz17A3_VL9; human IgG1, kappa
Kd [1]: 4.88 nM

B19: hz17A3-3 (antibody, human IgG1, kappa, V domains shown)
VH: B11 VH with E1Q, E89D
VL: B12 VL with K49Y
notes: hz17A3_VH1 + hz17A3_VL2; human IgG1, kappa
Kd [1]: 0.598 nM

B20: hz17A3-11 (antibody, human IgG1, kappa, V domains shown)
VH: B11 VH
VL: B11 VL with N31S, Y49K, F87Y
notes: hz17A3_VH3 + hz17A3_VL5; human IgG1, kappa
Kd [1]: 0.299 nM

B21: hz17A3-9 (antibody, human IgG1, kappa, V domains shown)
VH: B11 VH with N52S
VL: B11 VL
notes: hz17A3_VH4 + hz17A3_VL4; human IgG1, kappa
Kd [1]: 0.431 nM

B22: hz17A3-12 (antibody, human IgG1, kappa, V domains shown)
VH: B11 VH with N52S
VL: B11 VL with N31S, Y49K, F87Y
notes: hz17A3_VH4 + hz17A3_VL5; human IgG1, kappa
Kd [1]: 0.573 nM

B23: hz17A3-23 (antibody, human IgG1, kappa, V domains shown)
VH: B11 VH
VL: B12 VL with K49Y, Y87F
notes: hz17A3_VH3 + hz17A3_VL9; human IgG1, kappa
Kd [1]: 2.58 nM

B24: hz17A3-16 (antibody, human IgG1, kappa, V domains shown)
VH: B11 VH with N57S
VL: B11 VL with Y49K, N54S, F87Y
notes: hz17A3_VH5 + hz17A3_VL6; human IgG1, kappa
Kd [1]: 0.299 nM

B25: hz17A3-22 (antibody, human IgG1, kappa, V domains shown)
VH: B11 VH with N57S
VL: B12 VL
notes: hz17A3_VH5 + hz17A3_VL8; human IgG1, kappa
Kd [1]: 0.479 nM

B26: hz17A3-19 (antibody, human IgG1, kappa, V domains shown)
VH: B11 VH with N57S
VL: B11 VL with N31S, Y49K, N54S, F87Y
notes: hz17A3_VH5 + hz17A3_VL7; human IgG1, kappa
Kd [1]: 0.411 nM

B27: hz17A3-15 (antibody, human IgG1, kappa, V domains shown)
VH: B11 VH with N52S
VL: B11 VL with Y49K, N54S, F87Y
notes: hz17A3_VH4 + hz17A3_VL6; human IgG1, kappa
Kd [1]: 0.371 nM

B28: hz17A3-10 (antibody, human IgG1, kappa, V domains shown)
VH: B11 VH with N57S
VL: B11 VL
notes: hz17A3_VH5 + hz17A3_VL4; human IgG1, kappa
Kd [1]: 0.401 nM

B29: hz17A3-17 (antibody, human IgG1, kappa, V domains shown)
VH: B11 VH
VL: B11 VL with N31S, Y49K, N54S, F87Y
notes: hz17A3_VH3 + hz17A3_VL7; human IgG1, kappa
Kd [1]: 0.0328 nM

B30: ch10B4 (antibody, human IgG1, V domains shown)
VH: EVQLQQSGPELVKPGASVKISCKTSGYTFTEYIMHWVKQSHGKSLEWIGGINPNNGGTTYNQKFKGKATLTVDKSSSTAYMELRSLTSEDSAVYYCARKGKDYFDWYFDVWGAGTTVTVSS
VL: QIVLTQSPTIMSASPGEKVTMTCSASSSVSYMHWYQQKSGTSPKRWIYDTSKLASGVPARFSGSGSGTSYSLTISSMEAEDAATYYCQQWSSNPLTFGAGTKLELK
notes: also called chimeric antibody 10B4
Kd [1]: 0.355 nM | Kd [2]: 0.435 nM | koff [2]: 0.000262 s⁻¹ | kon [2]: 602000 M⁻¹ s⁻¹
